Results from US20230263832A1, “TARGETED DRUG DELIVERY TO SITES OF INTRAVASCULAR OCCLUSION” (Children's Medical Center Corporation, priority 2020, published 2023).

System: RBC aggregates in SCD mouse liver
Assay: TNFα-induced vaso-occlusion in SCD mouse liver (LaSC, 3 parameters)
Assay type: in vivo
Conditions: SS mice, TNFα 1 μg/mouse i.p. 1 h
Experimental: FIG. 12: Parameters of RBC aggregates were determined to quantitate vaso-occlusion in SCD mouse liver. SCD mice were injected with TNFα (1 μg/mouse; 1 h) to induce inflammatory vaso-occlusion, followed by CO2 euthanasia and PBS perfusion to flush unbound RBCs in the vasculature. The livers were harvested and fixed by PLP fixative, followed by cryosectioning and immunofluorescent staining with antibodies against Ter119 (for RBC marker), Endoglin (for sinusoidal vasculature), S100A8 (for neutrophils), and DAPI (for nuclei). Stained slides with fluorescent dye-labeled secondary antibodies were scanned on laser scan cytometry (LaSC), followed by quantitative imaging analysis (iCys software) to quantitate the # of RBC aggregates that are larger than 100 μm^2, total area of RBC aggregates, the # neutrophil-containing RBC aggregates by iCys software. Arrows indicate the neutrophil-containing RBC aggregate in liver sinusoid.
SCD SS and control AA mice were injected with or without TNFα (1 μg/mouse; 1 h) to induce inflammatory vaso-occlusion, followed by CO2 euthanasia and PBS perfusion to flush unbound RBCs in the vasculature. Immunofluorescent staining of liver cryosections was performed as described in FIG. 12 to produce LaSC images, which were subjected to quantitative imaging analysis of RBC aggregates for 3 parameters in SCD mouse livers (see FIG. 14).
From FIG. 13 LaSC scanning, cytometric events are defined by automatic image segmentation on specific channels by iCys software to quantitate # of RBC aggregate, total area of RBC aggregates, # of neutrophil-containing RBC aggregates by iCys software (Park et al. 2020). […]
(FIG. 15A) Representative images show the increased RBC aggregates upon TNFα injection in SCD mouse liver. (FIG. 15B) This was followed by quantitative imaging analysis (iCys software) to quantitate # of RBC aggregate, total area of RBC aggregates, # of neutrophil-containing RBC aggregates by iCys software. […]

**Q.** With TNFα as the substance, how does the “increase of # of RBC aggregates” value read?
**A.** The value was 51%.

**Q.** And the “increase of # of neutrophil-containing RBC aggregates” value?
**A.** Its value is 182%.

**Q.** What about the “increase of total area of RBC aggregates” value of the same substance?
**A.** The value was 59%.
